One molecule from PMC10105285 (Cell reports, 2023) can be followed below.

For the test, the target named is T1, FLAG-tagged human LMAN1, wild type (pED-FLAG-LMAN1) (human, UniProt P49257 31-510).
T1 sequence (looked up): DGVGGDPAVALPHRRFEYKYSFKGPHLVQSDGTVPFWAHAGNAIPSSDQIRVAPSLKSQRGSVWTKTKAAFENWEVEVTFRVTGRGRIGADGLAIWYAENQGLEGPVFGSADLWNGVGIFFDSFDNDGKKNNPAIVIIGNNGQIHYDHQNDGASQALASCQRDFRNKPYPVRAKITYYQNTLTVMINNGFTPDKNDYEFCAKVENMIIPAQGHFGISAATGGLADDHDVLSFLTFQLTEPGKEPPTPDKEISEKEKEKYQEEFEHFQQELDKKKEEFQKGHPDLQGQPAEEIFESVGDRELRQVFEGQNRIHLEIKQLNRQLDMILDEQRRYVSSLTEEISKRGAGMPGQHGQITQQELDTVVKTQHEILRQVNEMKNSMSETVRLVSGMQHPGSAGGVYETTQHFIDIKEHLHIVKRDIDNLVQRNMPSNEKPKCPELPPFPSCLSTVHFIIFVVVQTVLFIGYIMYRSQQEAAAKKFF
Description: flow cytometry on cells. A general note: A flow cytometer gives signals particle by particle.

B1: Der p 1 (Dermatophagoides pteronyssinus major mite allergen 1), biotinylated (natural protein, UniProt P08176 99-320, looked up)
chain: TNACSINGNAPAEIDLRQMRTVTPIRMQGGCGSCWAFSGVAATESAYLAYRNQSLDLAEQELVDCASQHGCHGDTIPRGIEYIQHNGVVQESYYRYVAREQSCRRPNAQRFGISNYCQIYPPNVNKIREALAQTHSAIAVIIGIKDLDAFRHYDGRTIIQRDNGYQPNYHAVNIVGYSNAQGVDYWIVRNSWDTNWGDNGYGYFAANIDLMMIEEYPYVVIL
modifications: biotinylated
As for B1, the binding result was “binds”.
